± gives the uncertainty stated by the source.
B1: Spectrin alpha chain, erythrocytic 1, residues 979 to 1036; numbered along this chain, P02549 (parent)
chain: EQRVMALYDFQARSPREVTMKKGDVLTLLSSINKDWWKVEAADHQGIVPAVYVRRLAH

Variants of: B1
Assay: abundance fitness (aPCA) (normalised: wild type 0, dead -1); higher = more abundant; growth selection in yeast, the domain comes from the species named
Details: Homo sapiens

D43T and D43W are within error of each other in abundance fitness: -0.223 ± 0.23 for the first, -0.622 ± 0.23 for the second.

First: D43L
Second: D43S
The abundance fitness of the first is lower: -0.876 ± 0.36 for the first, 0.096 ± 0.17 for the second.

Compared with D43Q, D43R is lower in abundance fitness: 0.413 ± 0.21 for the first, -0.708 ± 0.34 for the second.

Going from D43G to D43P, the abundance fitness falls from 0.567 ± 0.076 to -0.552 ± 0.38.

Going from L56Q to L56C, the abundance fitness rises from -0.848 ± 0.16 to -0.169 ± 0.44.

L56K and L56R are within error of each other in abundance fitness: -0.417 ± 0.45 for the first, -0.874 ± 0.2 for the second.

L56P and L56I are within error of each other in abundance fitness: -0.45 ± 0.38 for the first, -0.021 ± 0.12 for the second.

Going from K21G to K21R, the abundance fitness rises from -0.652 ± 0.17 to -0.105 ± 0.13.

K21F and K21A are within error of each other in abundance fitness: -0.643 ± 0.36 for the first, -0.561 ± 0.14 for the second.

K22E and K22C are within error of each other in abundance fitness: -0.819 ± 0.36 for the first, -0.586 ± 0.42 for the second.

Going from K22Q to K22A, the abundance fitness falls from 0.303 ± 0.49 to -0.664 ± 0.17.

K22H and K22R are within error of each other in abundance fitness: -0.341 ± 0.42 for the first, -0.238 ± 0.11 for the second.

First: L29E
Second: L29S
The abundance fitness of the first is lower: -0.934 ± 0.22 for the first, -0.134 ± 0.2 for the second.

L29W and L29G are within error of each other in abundance fitness: -0.111 ± 0.26 for the first, -0.464 ± 0.23 for the second.

L29T and L29R are within error of each other in abundance fitness: -0.27 ± 0.29 for the first, -0.768 ± 0.34 for the second.

I47V and I47L are within error of each other in abundance fitness: 0.228 ± 0.16 for the first, 0.065 ± 0.13 for the second.

First: I47M
Second: I47C
The abundance fitness of the first is higher: 0.561 ± 0.11 for the first, -0.226 ± 0.41 for the second.

First: I47W
Second: I47N
The abundance fitness of the first is higher: 0.461 ± 0.15 for the first, -0.25 ± 0.18 for the second.

I47A and A6E are within error of each other in abundance fitness: -0.532 ± 0.32 for the first, -0.47 ± 0.11 for the second.

A6S and A6M are within error of each other in abundance fitness: -0.496 ± 0.26 for the first, -0.915 ± 0.3 for the second.

A6R and A6K are within error of each other in abundance fitness: -0.767 ± 0.17 for the first, -0.73 ± 0.28 for the second.

A6W and A6L are within error of each other in abundance fitness: -0.754 ± 0.098 for the first, -0.886 ± 0.12 for the second.

A6N and V18K are within error of each other in abundance fitness: -0.44 ± 0.37 for the first, -0.418 ± 0.17 for the second.

Compared with V18A, V18R is lower in abundance fitness: -0.376 ± 0.13 for the first, -0.817 ± 0.16 for the second.

V18P and V18C are within error of each other in abundance fitness: -0.71 ± 0.33 for the first, -0.266 ± 0.21 for the second.

Going from V53T to V53C, the abundance fitness rises from -0.872 ± 0.33 to 0.039 ± 0.11.

Compared with V53S, V53L is higher in abundance fitness: -0.819 ± 0.26 for the first, 0.13 ± 0.1 for the second.

V48T and V48L are within error of each other in abundance fitness: -0.727 ± 0.17 for the first, -0.717 ± 0.19 for the second.

V48W and V48M are within error of each other in abundance fitness: -0.809 ± 0.29 for the first, -0.556 ± 0.36 for the second.

Compared with V48K, A57P is higher in abundance fitness: -0.56 ± 0.11 for the first, 0.297 ± 0.14 for the second.

First: A57N
Second: A57K
The abundance fitness of the first is lower: 0.105 ± 0.47 for the first, 0.933 ± 0.21 for the second.

A57S and Q11K are within error of each other in abundance fitness: 0.236 ± 0.16 for the first, 0.303 ± 0.14 for the second.

First: Q11W
Second: Q11Y
The abundance fitness of the first is lower: -1.23 ± 0.32 for the first, -0.185 ± 0.095 for the second.

E1G and E1R are within error of each other in abundance fitness: -0.425 ± 0.088 for the first, -0.215 ± 0.35 for the second.

Compared with D35V, D35P is lower in abundance fitness: -0.037 ± 0.14 for the first, -0.867 ± 0.42 for the second.

D35E and D35A are within error of each other in abundance fitness: -0.364 ± 0.26 for the first, -0.541 ± 0.096 for the second.

First: D35S
Second: D35T
The abundance fitness of the first is higher: -0.006 ± 0.18 for the first, -0.506 ± 0.27 for the second.

A50M and A50V are within error of each other in abundance fitness: -0.823 ± 0.2 for the first, -0.79 ± 0.29 for the second.

A50G and A50W are within error of each other in abundance fitness: -0.967 ± 0.19 for the first, -0.879 ± 0.23 for the second.

A50D and A50C are within error of each other in abundance fitness: -0.872 ± 0.22 for the first, -0.512 ± 0.3 for the second.

First: A50S
Second: A12F
The abundance fitness of the first is higher: 0.011 ± 0.087 for the first, -0.627 ± 0.41 for the second.

Compared with A12P, A12R is higher in abundance fitness: -0.971 ± 0.14 for the first, -0.389 ± 0.17 for the second.

A12V and G46R are within error of each other in abundance fitness: -0.848 ± 0.38 for the first, -0.58 ± 0.18 for the second.

G46L and G46C are within error of each other in abundance fitness: -0.227 ± 0.17 for the first, -0.361 ± 0.34 for the second.

G46Y and S30V are within error of each other in abundance fitness: -0.897 ± 0.25 for the first, -0.964 ± 0.28 for the second.

S30Y and S30E are within error of each other in abundance fitness: -0.108 ± 0.49 for the first, -0.066 ± 0.094 for the second.

Compared with S30M, S30L is lower in abundance fitness: -0.463 ± 0.32 for the first, -1.18 ± 0.29 for the second.

S30K and S30T are within error of each other in abundance fitness: -0.322 ± 0.26 for the first, -0.632 ± 0.22 for the second.

Going from S30D to S30A, the abundance fitness falls from -0.013 ± 0.26 to -0.657 ± 0.14.

D24S and D24M are within error of each other in abundance fitness: -0.256 ± 0.24 for the first, -0.527 ± 0.15 for the second.

Compared with D24T, D24R is lower in abundance fitness: 0.006 ± 0.41 for the first, -0.689 ± 0.28 for the second.

Going from D24G to D24Q, the abundance fitness rises from -0.883 ± 0.29 to 0.579 ± 0.22.

L26Y and L26R are within error of each other in abundance fitness: -0.173 ± 0.36 for the first, -0.819 ± 0.38 for the second.

L26G and L26M are within error of each other in abundance fitness: -0.65 ± 0.13 for the first, -0.34 ± 0.18 for the second.

L26Q and L26K are within error of each other in abundance fitness: -0.429 ± 0.26 for the first, -0.324 ± 0.39 for the second.

L26C and T27I are within error of each other in abundance fitness: -0.046 ± 0.44 for the first, -0.521 ± 0.29 for the second.

Going from T27N to T27S, the abundance fitness falls from -0.246 ± 0.17 to -0.808 ± 0.12.

T27V and T27Q are within error of each other in abundance fitness: -0.396 ± 0.088 for the first, -0.228 ± 0.28 for the second.

T27C and L7W are within error of each other in abundance fitness: -0.627 ± 0.32 for the first, -0.716 ± 0.22 for the second.

Compared with L7K, L7S is lower in abundance fitness: -0.176 ± 0.35 for the first, -0.85 ± 0.29 for the second.

L7G and L7D are within error of each other in abundance fitness: -0.559 ± 0.12 for the first, -0.135 ± 0.48 for the second.

L7H and M5N are within error of each other in abundance fitness: -1.18 ± 0.43 for the first, -0.512 ± 0.48 for the second.

First: M5W
Second: M5T
The abundance fitness of the first is lower: -0.85 ± 0.17 for the first, -0.242 ± 0.14 for the second.

M5A and M5C are within error of each other in abundance fitness: -0.587 ± 0.14 for the first, -0.516 ± 0.18 for the second.

Going from M5V to M5Q, the abundance fitness falls from 0.422 ± 0.056 to -0.383 ± 0.21.

Going from R3S to R3F, the abundance fitness rises from -0.737 ± 0.2 to 0.074 ± 0.12.

R3H and R3E are within error of each other in abundance fitness: -0.408 ± 0.21 for the first, -0.582 ± 0.38 for the second.

Going from R3T to R3Q, the abundance fitness rises from -0.778 ± 0.14 to -0.272 ± 0.11.

R3V and F10Q are within error of each other in abundance fitness: -0.828 ± 0.36 for the first, -0.607 ± 0.11 for the second.

F10A and F10S are within error of each other in abundance fitness: -0.778 ± 0.1 for the first, -0.707 ± 0.21 for the second.

F10L and F10P are within error of each other in abundance fitness: -0.658 ± 0.16 for the first, -0.712 ± 0.2 for the second.

Going from F10G to F10W, the abundance fitness rises from -0.996 ± 0.44 to 0.365 ± 0.085.

First: P15E
Second: P15R
The abundance fitness of the first is higher: -0.077 ± 0.17 for the first, -0.529 ± 0.14 for the second.

P15T and P15A are within error of each other in abundance fitness: -0.293 ± 0.23 for the first, -0.252 ± 0.11 for the second.

P15S and V25C are within error of each other in abundance fitness: -0.178 ± 0.093 for the first, -0.146 ± 0.39 for the second.

V25K and V25S are within error of each other in abundance fitness: -0.226 ± 0.46 for the first, -0.887 ± 0.34 for the second.

V25R and V25T are within error of each other in abundance fitness: -0.469 ± 0.14 for the first, -0.7 ± 0.5 for the second.

Compared with V25I, V4M is lower in abundance fitness: -0.099 ± 0.21 for the first, -0.716 ± 0.31 for the second.

Going from V4L to V4R, the abundance fitness falls from -0.537 ± 0.098 to -0.877 ± 0.12.

V4C and V4A are within error of each other in abundance fitness: -0.52 ± 0.33 for the first, -0.945 ± 0.25 for the second.

First: V4Q
Second: W37A
The abundance fitness of the first is higher: -0.145 ± 0.18 for the first, -0.848 ± 0.45 for the second.

First: W37G
Second: W37L
The abundance fitness of the first is lower: -0.596 ± 0.31 for the first, 0.323 ± 0.059 for the second.

Compared with W37I, E17S is lower in abundance fitness: 0.405 ± 0.2 for the first, -0.92 ± 0.41 for the second.

For E17Q, the abundance fitness was -0.239 ± 0.31.

Source: the Human Domainome abundance scans (Beltran et al. 2025)
